Source: US20220363770A1 (Amgen, published 2022)
Substitutions are numbered along the chain they refer to.

B1: iPS:454825 (bispecific antibody, human IgG1, kappa, lambda, N297G)
light 1: QSVLTQPPSVSAAPGQKVTISCSGSRSNIGIKAVSWYQQLPGTAPKLLIYDNNKRPSGIPDRFSGSKSGTSATLGITGLQTGDEADYYCGTWDSRLSAVVFGGGTKLTVLGQPKAAPSVTLFPPSSEELQANKATLVCLISDFYPGAVTVAWKADSSPVKAGVETTTPSKQSNNKYAAKSYLSLTPEQWKSHRSYSCQVTHEGSTVEKTVAPTECS
heavy 1: QVQLVESGGGVVQPGRSLRLSCAASGFTFSSFGMHWVRQAPGKGLEWVAVISFDGSIKYSVDSVKGRFTISRDNSKNTLFLQMNSLRAEDTAVYYCARDRLNYYESSGYYHYKYYGMAVWGQGTTVTVSSASTKGPSVFPLAPSSKSTSGGTAALGCLVKDYFPEPVTVSWNSGALTSGVHTFPAVLQSSGLYSLESVVTVPSSSLGTQTYICNVNHKPSNTKVDKKVEPKSCDKTHTCPPCPAPELLGGPSVFLFPPKPKDTLMISRTPEVTCVVVDVSHEDPEVKFNWYVDGVEVHNAKTKPCEEQYGSTYRCVSVLTVLHQDWLNGKEYKCKVSNKALPAPIEKTISKAKGQPREPQVYTLPPSRKKMTKNQVSLTCLVKGFYPSDIAVEWESNGQPENNYKTTPPVLKSDGSFFLYSKLTVDKSRWQQGNVFSCSVMHEALHNHYTQKSLSLSPGK
light 2: EIVLTQSPATLSLSPGERATLSCRASKSVGRSLHWYQQKPGQAPRLLIKYASQSLSGIPARFSGSGSGTDFTLTISSLEPEDFAVYYCHQSSRLPFTFGPGTKVDIKRTVAAPSVFIFPPSDEQLKSGTASVVCLLNNFYPREAKVQWKVDNALQSGNSQESVTEQDSKDSTYSLESTLTLSKADYEKHKVYACEVTHQGLSSPVTKSFNRGEC
heavy 2: not shown
B2: iPS:454841 (bispecific antibody, human IgG1, kappa, lambda, N297G)
light 1: B1 light 1
heavy 1: B1 heavy 1
light 2: B1 light 2 with R31W
heavy 2: not shown
B3: iPS:454857 (bispecific antibody, human IgG1, kappa, lambda, N297G)
light 1: B1 light 1 with R26S, I31N, K32N, A33Y, A72T
heavy 1: B1 heavy 1 with E105R, S107F, H111G, K113H
light 2: B1 light 2 with R31Q
heavy 2: not shown
B4: iPS:454845 (bispecific antibody, human IgG1, kappa, lambda, N297G)
light 1: B1 light 1
heavy 1: B1 heavy 1
light 2: B1 light 2 with R31W
heavy 2: not shown
B5: iPS:454859 (bispecific antibody, human IgG1, kappa, lambda, N297G)
light 1: B1 light 1 with R26S, I31N, K32N, A33Y, A72T
heavy 1: B1 heavy 1 with E105R, S107F, H111G, K113H
light 2: B1 light 2 with S28A, G30W, R31H, S32N, R93M
heavy 2: not shown
B6: iPS:454847 (bispecific antibody, human IgG1, kappa, lambda, N297G)
light 1: B1 light 1
heavy 1: B1 heavy 1
light 2: B1 light 2 with R31W
heavy 2: not shown
B7: iPS:454861 (bispecific antibody, human IgG1, kappa, lambda, N297G)
light 1: B1 light 1 with R26S, I31N, K32N, A33Y, A72T
heavy 1: B1 heavy 1 with E105R, S107F, H111G, K113H
light 2: B1 light 2 with K27R, R31L, S32A, R93F
heavy 2: not shown
B8: iPS:454829 (bispecific antibody, human IgG1, kappa, lambda, N297G)
light 1: B1 light 1
heavy 1: B1 heavy 1
light 2: B1 light 2 with K27Q
heavy 2: not shown
B9: iPS:454869 (bispecific antibody, human IgG1, kappa, lambda, N297G)
light 1: B1 light 1 with R26S, I31N, K32N, A33Y, A72T
heavy 1: B1 heavy 1 with E105R, S107F, H111G, K113H
light 2: B1 light 2 with R31Q
heavy 2: not shown
B10: iPS:454871 (bispecific antibody, human IgG1, kappa, lambda, N297G)
light 1: B1 light 1 with R26S, I31N, K32N, A33Y, A72T
heavy 1: B1 heavy 1 with E105R, S107F, H111G, K113H
light 2: B1 light 2 with R31Q
heavy 2: not shown
B11: iPS:454833 (bispecific antibody, human IgG1, kappa, lambda, N297G)
light 1: B1 light 1
heavy 1: B1 heavy 1
light 2: B1 light 2
heavy 2: not shown
B12: iPS:454849 (bispecific antibody, human IgG1, kappa, lambda, N297G)
light 1: B1 light 1
heavy 1: B1 heavy 1
light 2: B1 light 2 with R31W
heavy 2: not shown
B13: iPS:454837 (bispecific antibody, human IgG1, kappa, lambda, N297G)
light 1: B1 light 1
heavy 1: B1 heavy 1
light 2: B1 light 2 with S28A, R31W
heavy 2: not shown
B14: iPS:454855 (bispecific antibody, human IgG1, kappa, lambda, N297G)
light 1: B1 light 1
heavy 1: B1 heavy 1
light 2: B1 light 2 with R31Y
heavy 2: not shown
B15: iPS:454835 (bispecific antibody, human IgG1, kappa, lambda, N297G)
light 1: B1 light 1
heavy 1: B1 heavy 1
light 2: B1 light 2
heavy 2: not shown
B16: iPS:454865 (bispecific antibody, human IgG1, kappa, lambda, N297G)
light 1: B1 light 1 with R26S, I31N, K32N, A33Y, A72T
heavy 1: B1 heavy 1 with E105R, S107F, H111G, K113H
light 2: B1 light 2 with R31Q
heavy 2: not shown
B17: iPS:454831 (bispecific antibody, human IgG1, kappa, lambda, N297G)
light 1: B1 light 1
heavy 1: B1 heavy 1
light 2: B1 light 2 with K27Q
heavy 2: not shown
B18: iPS:454851 (bispecific antibody, human IgG1, kappa, lambda, N297G)
light 1: B1 light 1
heavy 1: B1 heavy 1
light 2: B1 light 2 with R31W
heavy 2: not shown
B19: iPS:454867 (bispecific antibody, human IgG1, kappa, lambda, N297G)
light 1: B1 light 1 with R26S, I31N, K32N, A33Y, A72T
heavy 1: B1 heavy 1 with E105R, S107F, H111G, K113H
light 2: B1 light 2 with R31W
heavy 2: not shown
B20: iPS:454827 (bispecific antibody, human IgG1, kappa, lambda, N297G)
light 1: B1 light 1
heavy 1: B1 heavy 1
light 2: B1 light 2 with K27Q
heavy 2: not shown
B21: iPS:454839 (bispecific antibody, human IgG1, kappa, lambda, N297G)
light 1: B1 light 1
heavy 1: B1 heavy 1
light 2: B1 light 2 with R31W
heavy 2: not shown
B22: iPS:454843 (bispecific antibody, human IgG1, kappa, lambda, N297G)
light 1: B1 light 1
heavy 1: B1 heavy 1
light 2: B1 light 2 with R31W
heavy 2: not shown
B23: iPS:454853 (bispecific antibody, human IgG1, kappa, lambda, N297G)
light 1: B1 light 1
heavy 1: B1 heavy 1
light 2: B1 light 2 with R31W
heavy 2: not shown
B24: iPS:454863 (bispecific antibody, human IgG1, kappa, lambda, N297G)
light 1: B1 light 1 with R26S, I31N, K32N, A33Y, A72T
heavy 1: B1 heavy 1 with E105R, S107F, H111G, K113H
light 2: B1 light 2 with R31Q
heavy 2: not shown

What was measured:
[1] = target: human CGRP receptor (human, UniProt Q16602 23-461; O60894 27-148); experiment: cell-based or functional assay
[2] = target: T1, human PAC1 receptor (human, UniProt P41586 24-468); experiment: cell-based or functional assay
T1 sequence: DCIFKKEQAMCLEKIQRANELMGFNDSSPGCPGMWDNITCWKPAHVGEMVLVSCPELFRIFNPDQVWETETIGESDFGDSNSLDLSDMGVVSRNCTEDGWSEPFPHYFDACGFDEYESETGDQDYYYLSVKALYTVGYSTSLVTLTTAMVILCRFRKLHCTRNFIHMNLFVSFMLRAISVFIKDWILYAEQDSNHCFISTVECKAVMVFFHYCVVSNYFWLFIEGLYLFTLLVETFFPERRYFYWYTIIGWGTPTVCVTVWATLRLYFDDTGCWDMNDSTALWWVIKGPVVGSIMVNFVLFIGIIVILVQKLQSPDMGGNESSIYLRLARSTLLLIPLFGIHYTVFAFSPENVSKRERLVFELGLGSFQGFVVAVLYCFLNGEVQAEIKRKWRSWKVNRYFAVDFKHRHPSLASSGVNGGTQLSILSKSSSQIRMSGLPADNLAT

Chain of human CGRP receptor (Q16602 23-461 limits assumed, chain 1 of 2): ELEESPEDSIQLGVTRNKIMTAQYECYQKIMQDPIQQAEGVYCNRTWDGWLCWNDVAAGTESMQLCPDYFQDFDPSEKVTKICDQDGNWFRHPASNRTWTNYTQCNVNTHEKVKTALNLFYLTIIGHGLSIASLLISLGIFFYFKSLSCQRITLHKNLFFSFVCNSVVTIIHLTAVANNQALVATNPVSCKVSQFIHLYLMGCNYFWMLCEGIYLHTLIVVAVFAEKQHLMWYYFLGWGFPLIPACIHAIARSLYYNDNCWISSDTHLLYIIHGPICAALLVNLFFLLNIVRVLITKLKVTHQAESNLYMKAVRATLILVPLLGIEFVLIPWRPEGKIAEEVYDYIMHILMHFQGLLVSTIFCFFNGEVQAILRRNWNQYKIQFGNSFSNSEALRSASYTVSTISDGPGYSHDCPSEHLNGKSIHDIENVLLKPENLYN
Chain of human CGRP receptor (O60894 27-148 limits assumed, chain 2 of 2): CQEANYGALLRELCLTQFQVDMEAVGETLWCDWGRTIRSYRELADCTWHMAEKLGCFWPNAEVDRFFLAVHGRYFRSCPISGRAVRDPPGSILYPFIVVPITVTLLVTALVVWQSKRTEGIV

Binder	Fold-improvement over 4E4 Ab [1]	IC50 [1]	Fold-improvement over 29G4v22 Ab [2]	IC50 [2]
B1	2 fold	0.29 nM	8.4 fold	0.79 nM
B2	1.4 fold	0.46 nM	8.8 fold	0.78 nM
B3	0.5 fold	1.36 nM	11.2 fold	0.57 nM
B4	1.7 fold	0.4 nM	8.2 fold	0.66 nM
B5	0.4 fold	1.5 nM	3.3 fold	1.91 nM
B6	1.5 fold	0.43 nM	6.7 fold	0.8 nM
B7	0.4 fold	1.54 nM	4.8 fold	1.34 nM
B8	1.8 fold	0.36 nM	9.8 fold	0.7 nM
B9	0.4 fold	1.65 nM	5.8 fold	1.1 nM
B10	0.2 fold	2.3 nM	3.3 fold	1.74 nM
B11	2.6 fold	0.24 nM	9 fold	0.76 nM
B12	1.2 fold	0.55 nM	3.6 fold	1.48 nM
B13	1.4 fold	0.45 nM	6.8 fold	1.01 nM
B14	1.4 fold	0.46 nM	6.6 fold	0.81 nM
B15	2.2 fold	0.28 nM	9.3 fold	0.73 nM
B16	0.4 fold	1.59 nM	3.9 fold	1.63 nM
B17	1.7 fold	0.38 nM	7.6 fold	0.9 nM
B18	1.8 fold	0.37 nM	7.1 fold	0.76 nM
B19	0.4 fold	1.55 nM	6.5 fold	0.98 nM
B20	1.7 fold	0.34 nM	8.9 fold	0.75 nM
B21	1.8 fold	0.36 nM	8.6 fold	0.79 nM
B22	1.6 fold	0.42 nM	5.8 fold	0.93 nM
B23	1.4 fold	0.47 nM	5.8 fold	0.93 nM
B24	0.4 fold	1.5 nM	4.5 fold	1.4 nM
